This data set has as its target PtrMYB074 (Populus trichocarpa, UniProt B9IEX5 1-371). The experiment in a line: EMSA. On the technique in general: A gel shift assay detects complexes by their altered migration in electrophoresis.

B1: PtrbHLH186 promoter W-box probe (dsDNA)
DNA 1: CTATAGTTTGACTGTA
DNA 2: TACAGTCAAACTATAG
In the case of B1, the binding result is reported as “no binding”.
